Patent US20070212679

Target: T1, human GST-E1 (Boston Biochem), P22314
T1 chain: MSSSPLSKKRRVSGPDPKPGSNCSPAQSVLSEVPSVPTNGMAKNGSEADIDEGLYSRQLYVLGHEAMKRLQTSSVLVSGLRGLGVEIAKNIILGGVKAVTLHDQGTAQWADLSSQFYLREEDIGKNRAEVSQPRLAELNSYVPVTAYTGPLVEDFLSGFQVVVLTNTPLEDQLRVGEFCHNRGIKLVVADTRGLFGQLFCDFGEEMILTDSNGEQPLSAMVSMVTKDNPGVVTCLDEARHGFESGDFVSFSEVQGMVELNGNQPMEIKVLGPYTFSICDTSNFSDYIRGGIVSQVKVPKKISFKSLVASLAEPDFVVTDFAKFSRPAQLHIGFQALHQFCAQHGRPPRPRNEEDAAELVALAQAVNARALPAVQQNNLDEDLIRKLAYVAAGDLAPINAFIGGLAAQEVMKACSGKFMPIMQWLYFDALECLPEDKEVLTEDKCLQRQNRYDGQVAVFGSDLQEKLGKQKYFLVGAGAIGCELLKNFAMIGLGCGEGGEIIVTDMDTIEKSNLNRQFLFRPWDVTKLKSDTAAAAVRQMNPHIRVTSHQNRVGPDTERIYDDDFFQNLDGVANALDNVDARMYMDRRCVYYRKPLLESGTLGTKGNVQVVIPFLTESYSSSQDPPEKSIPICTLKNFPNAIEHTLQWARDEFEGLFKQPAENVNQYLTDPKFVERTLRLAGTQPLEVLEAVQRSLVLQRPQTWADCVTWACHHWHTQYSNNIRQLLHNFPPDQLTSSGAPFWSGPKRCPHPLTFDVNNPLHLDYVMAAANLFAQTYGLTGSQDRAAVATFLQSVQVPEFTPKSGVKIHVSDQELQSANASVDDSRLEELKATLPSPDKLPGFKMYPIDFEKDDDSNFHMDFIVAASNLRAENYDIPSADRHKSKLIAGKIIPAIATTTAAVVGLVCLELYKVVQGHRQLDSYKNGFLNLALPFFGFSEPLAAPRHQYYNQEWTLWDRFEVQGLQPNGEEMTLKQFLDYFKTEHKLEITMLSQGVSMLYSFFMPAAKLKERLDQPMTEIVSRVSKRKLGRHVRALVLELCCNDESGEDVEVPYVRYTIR

B1: His6-Parkin (full-length human Parkin fused to an N-terminal histidine tag, from E. coli, refolded) (protein)
chain: IYICTIIIIISSGLVPRGSGMKETAAAKFERQHMDSPDLGTDDDDKAMADIGSAATMIVFVRFNSSHGFPVEVDSDTSIFQLKEVVAKRQGVPADQLRVIFAGKELRNDWTVQNCDLDQQSIVHIVQRPWRKGQEMNATGGDDPRNAAGGCEREPQSLTRVDLSSSVLPGDSVGLAVILHTDSRKDSPPAGSPAGRSIYNSFYVYCKGPCQRVQPGKLRVQCSTCRQATLTLTQGPSCWDDVLIPNRMSGECQSPHCPGTSAEFFFKCGAHPTSDKETPVALHLIATNSRNITCITCTDVRSPVLVFQCNSRHVICLDCFHLYCVTRLNDRQFVHDPQLGYSLPCVAGCPNSLIKELHHFRILGEEQYNRYQQYGAEECVLQMGGVLCPRPGCGAGLLPEPDQRKVTCEGGNGLGCGFAFCRECKEAYHEGECSAVFEASGTTTQAYRVDERAAEQARWEAASKETIKKTTKPCPRCHVPVEKNGGCMHMKCPQPQCRLEWCWNCGCEWNRVCMGDHWFDV
- ubiquitination of Parkin in the absence of UbcH7 (biotin-ubiquitin detected on blot with NeutrAvidin-HRP): some reaction product was seen in the absence of UbcH7 when Parkin was incubated with E1 and ubiquitin for 90 minutes
